Results reported in publication PMC7793103.

Tested on: HIV-1 reverse transcriptase (HXB2-RT) (HIV-1 (HXB2))
Test: MST
Settings: MST: 50 nM RNA complex titrated with RT; binding buffer, pH and temperature not stated; annealing buffer 10 mM Tris-HCl pH 7.5, 10 mM NaCl, 1 mM MgCl2, 140 mM …

MAL 5'UTR:tRNALys3 showed a Kd of 1.36 µM.
